Experimental findings from publication PMC7308368, “Structure of the polymerase ε holoenzyme and atomic model of the leading strand replisome” (Nature Communications, 2020) are described below.

B1: Dpb3 subunit of S. cerevisiae DNA polymerase ε holoenzyme (natural protein)
chain: MSNLVKEKAPVFPISKVKKIAKCDPEYVITSNVAISATAFAAELFVQNLVEESLVLAQLNSKGKTSLRLSLNSIEECVEKRDNFRFLEDAIKQLKKNSALDKKRELNMQPGRSDQEVVIEEPELHEDDGVEEEEEEDEVSEEEEPVHNEELLDDSKDQQNDKSTRSVASLLSRFQYKSALDVGEHSDSSDIEVDHTKSTDP
notes: DNA polymerase epsilon subunit C Dpb3, S. cerevisiae; histone fold domain and C-terminal region; The holoenzyme was purified on anti-Flag resin; source: yeast, subunit genes integrated under the Gal1/10 promotor, galactose-induced; purified as holoenzyme (anti-Flag resin, MonoS)

Test [1] addresses T1, Pol2 subunit of S. cerevisiae DNA polymerase ε holoenzyme (S. cerevisiae, UniProt P21951 1-2222).
T1 construct: DNA polymerase epsilon catalytic subunit Pol2, S. cerevisiae; 2222-residue polypeptide with catalytic NTD, NTD-CTD linker (Thr-1186 to Ser-1308) and non-catalytic CTD; The holoenzyme was purified on anti-Flag resin; source: yeast, subunit genes integrated under the Gal1/10 promotor, galactose-induced; purified as holoenzyme (anti-Flag resin, MonoS)
The test can be described thus: cryo-EM structure; recombinant Pol ε holoenzyme at ~1.6 mg/ml on C-flat holey carbon grids; rigid-state particles selected; 3.5 Å map; sample buffer 50 mM Hepes pH 7.5, 50 mM KGlu, 200 mM KAcetate, 1 mM DTT, 4 mM MgCl2. The following applies: both partners purified.

Test [2] has as its target B1. The test is described as above. The following applies: both partners purified.

T1 sequence (P21951 whole entry): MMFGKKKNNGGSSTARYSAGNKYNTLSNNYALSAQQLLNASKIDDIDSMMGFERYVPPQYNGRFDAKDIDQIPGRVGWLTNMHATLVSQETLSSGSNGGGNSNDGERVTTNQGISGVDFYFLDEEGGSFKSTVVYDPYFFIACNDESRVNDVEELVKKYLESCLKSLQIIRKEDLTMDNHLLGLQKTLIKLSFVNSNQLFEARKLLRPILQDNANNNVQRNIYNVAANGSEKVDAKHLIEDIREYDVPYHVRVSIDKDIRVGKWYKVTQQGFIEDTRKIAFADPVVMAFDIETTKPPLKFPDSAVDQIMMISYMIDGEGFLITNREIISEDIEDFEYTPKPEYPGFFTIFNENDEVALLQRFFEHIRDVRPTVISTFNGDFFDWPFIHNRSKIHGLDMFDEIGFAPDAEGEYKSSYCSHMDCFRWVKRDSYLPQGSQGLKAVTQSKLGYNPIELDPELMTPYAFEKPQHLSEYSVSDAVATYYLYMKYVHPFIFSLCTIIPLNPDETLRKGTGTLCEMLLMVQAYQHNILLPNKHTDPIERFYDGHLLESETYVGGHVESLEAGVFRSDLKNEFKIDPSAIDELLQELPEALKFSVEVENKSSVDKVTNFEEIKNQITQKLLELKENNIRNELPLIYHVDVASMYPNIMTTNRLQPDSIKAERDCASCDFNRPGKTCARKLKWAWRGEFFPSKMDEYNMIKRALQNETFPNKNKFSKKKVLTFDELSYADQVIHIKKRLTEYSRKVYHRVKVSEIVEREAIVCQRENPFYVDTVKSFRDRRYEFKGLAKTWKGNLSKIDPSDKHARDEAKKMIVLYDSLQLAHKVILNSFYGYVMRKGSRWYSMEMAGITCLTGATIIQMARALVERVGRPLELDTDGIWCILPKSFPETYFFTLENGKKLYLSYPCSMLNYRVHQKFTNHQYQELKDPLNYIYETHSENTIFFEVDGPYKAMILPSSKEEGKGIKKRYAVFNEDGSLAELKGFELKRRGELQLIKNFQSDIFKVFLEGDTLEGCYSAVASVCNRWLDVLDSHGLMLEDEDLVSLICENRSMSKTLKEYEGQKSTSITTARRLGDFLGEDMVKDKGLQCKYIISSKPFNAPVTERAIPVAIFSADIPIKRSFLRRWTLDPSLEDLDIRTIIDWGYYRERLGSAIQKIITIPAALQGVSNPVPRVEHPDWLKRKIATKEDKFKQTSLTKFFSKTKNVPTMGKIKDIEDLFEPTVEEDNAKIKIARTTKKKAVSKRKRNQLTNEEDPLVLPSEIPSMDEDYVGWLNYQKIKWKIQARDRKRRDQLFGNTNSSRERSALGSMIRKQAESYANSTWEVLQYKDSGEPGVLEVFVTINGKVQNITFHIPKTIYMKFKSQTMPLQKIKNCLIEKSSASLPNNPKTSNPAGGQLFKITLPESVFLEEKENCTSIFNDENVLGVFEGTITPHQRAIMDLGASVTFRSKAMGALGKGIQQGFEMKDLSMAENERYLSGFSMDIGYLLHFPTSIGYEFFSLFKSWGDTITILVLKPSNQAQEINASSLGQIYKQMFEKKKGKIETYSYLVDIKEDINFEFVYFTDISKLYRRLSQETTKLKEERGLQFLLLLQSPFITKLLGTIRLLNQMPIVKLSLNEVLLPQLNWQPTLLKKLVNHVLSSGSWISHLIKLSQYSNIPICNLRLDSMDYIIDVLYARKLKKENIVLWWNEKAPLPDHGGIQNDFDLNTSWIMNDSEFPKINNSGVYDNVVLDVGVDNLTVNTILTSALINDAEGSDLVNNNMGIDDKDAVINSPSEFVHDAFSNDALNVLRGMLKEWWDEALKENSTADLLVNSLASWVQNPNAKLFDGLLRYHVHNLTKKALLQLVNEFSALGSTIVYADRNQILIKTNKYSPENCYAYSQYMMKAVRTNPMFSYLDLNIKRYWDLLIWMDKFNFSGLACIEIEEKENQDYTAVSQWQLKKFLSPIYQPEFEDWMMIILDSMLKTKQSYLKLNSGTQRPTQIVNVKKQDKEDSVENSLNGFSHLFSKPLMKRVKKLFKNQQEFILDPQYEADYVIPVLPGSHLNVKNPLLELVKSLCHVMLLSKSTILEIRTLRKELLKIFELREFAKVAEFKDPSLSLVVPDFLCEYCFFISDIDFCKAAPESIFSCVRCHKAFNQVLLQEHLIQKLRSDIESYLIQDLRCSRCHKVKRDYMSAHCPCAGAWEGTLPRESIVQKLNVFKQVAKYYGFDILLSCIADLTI

With B1, in test [1], the binding result is reported as “binds”.

B2: Dpb2 subunit of S. cerevisiae DNA polymerase ε holoenzyme (natural protein)
chain: MFGSGNVLPVKIQPPLLRPLAYRVLSRKYGLSIKSDGLSALAEFVGTNIGANWRQGPATIKFLEQFAAVWKQQERGLFIDQSGVKEVIQEMKEREKVEWSHEHPIQHEENILGRTDDDENNSDDEMPIAADSSLQNVSLSSPMRQPTERDEYKQPFKPESSKALDWRDYFKVINASQQQRFSYNPHKMQFIFVPNKKQNGLGGIAGFLPDIEDKVQMFLTRYYLTNDRVMRNENFQNSDMFNPLSSMVSLQNELSNTNRQQQSSSMSITPIKNLLGRDAQNFLLLGLLNKNFKGNWSLEDPSGSVEIDISQTIPTQGHYYVPGCMVLVEGIYYSVGNKFHVTSMTLPPGERREITLETIGNLDLLGIHGISNNNFIARLDKDLKIRLHLLEKELTDHKFVILGANLFLDDLKIMTALSKILQKLNDDPPTLLIWQGSFTSVPVFASMSSRNISSSTQFKNNFDALATLLSRFDNLTENTTMIFIPGPNDLWGSMVSLGASGTLPQDPIPSAFTKKINKVCKNVVWSSNPTRIAYLSQEIVIFRDDLSGRFKRHRLEFPFNESEDVYTENDNMMSKDTDIVPIDELVKEPDQLPQKVQETRKLVKTILDQGHLSPFLDSLRPISWDLDHTLTLCPIPSTMVLCDTTSAQFDLTYNGCKVINPGSFIHNRRARYMEYVPSSKKTIQEEIYI
notes: DNA polymerase epsilon subunit B Dpb2, S. cerevisiae; N-terminal helical domain (8-94, disordered), PDE domain (168-209 and 349-689), OB domain (210-348); The holoenzyme was purified on anti-Flag resin; also called Dbp2; B subunit; source: yeast, subunit genes integrated under the Gal1/10 promotor, galactose-induced; purified as holoenzyme (anti-Flag resin, MonoS)
Regarding B2, the binding result in test [1] was “binds”.

B3: Dpb4 subunit of S. cerevisiae DNA polymerase ε holoenzyme (natural protein)
chain: MPPKGWRKDAQGNYPTTSYIKEQENITIQDLLFPKSTIVNLAREVPQQSGKKLLINKDASLALQRGATVFVNHLLLFAREIAKSQDKKSCSVDDVLSALDHIGHSALKGPVRDKLDEYQAAVEQRKKEKLDSGEVDADGDIDMGEDKENVPVEKVKEHDEIEEQGDALQDVEESSEKKQKTESQDVETRVQNLEQT
notes: DNA polymerase epsilon subunit D Dpb4, S. cerevisiae; histone fold domain and C-terminal region; The holoenzyme was purified on anti-Flag resin; also called Dbp4; source: yeast, subunit genes integrated under the Gal1/10 promotor, galactose-induced; purified as holoenzyme (anti-Flag resin, MonoS)
Consider B3, for which the binding result in test [2] and in test [1] was “binds” in each case.
